Test: yeast display, Sf9 membrane polyspecificity reagent, FACS + sequencing; frameworks hold sequencing errors
Outline: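 Using colony PCR, genes from sorted yeast display clones were amplified, then sequenced on MiSeq at 2 × 250 and filtered by CDR length. The clones had been stained with 10% biotinylated, detergent-solubilized Sf9 membrane reagent for 1 hour at 4 °C and sorted by FACS into low and high (top ~1%) gates on anti-HA and streptavidin fluorescence. Polyreactivity labels come from the gate of origin.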
With “QVHLVESGGGLVQAGGSLRLSCAASGRTFDRYDMGWYRQAPGKEWELVATISSSGGSTYYADSVKGRFTISRDNEKNTVYLQMNSLKPEDTAVYYCAADPSGDYWGQGTQVTVSS” the “polyreactivity (PSR sort gate)” value was “low polyreactivity”. With “QVHLVESGGGLVQAGGSLRLSCAASGRTFINYAMGWYRQAPGKERELVAAITTGGRTNYADSVKGRFTISRDNAKNTVYLQMNSLKPEDTAVYYCAADRYYWGRYTLNYWGQGTQVTVSS” the “polyreactivity (PSR sort gate)” value was “low polyreactivity”. With “QVHLVESGGGLVQAGGSLRLSCAASGRTFIRYTMGWYRQAPGKEREFVAAINTSGGRTYYADSVKGRFTISRDNAKNTVYLQMNSLKPEDTAVYYCAAGYSASRKVDYWGQGTQVTVSS” the “polyreactivity (PSR sort gate)” value was “high polyreactivity”. For “QVHLVESGGGLVQAGGSLRLSCAASGRTFPSYAMGWYRQAPGKERELVAAISSSGGSTYYADSVKGRFTISRDNAKNTVYLQMNSLKPEDTAVYYCAAATPSGYYYWGQGTQVTVSS”, the “polyreactivity (PSR sort gate)” value was “high polyreactivity”. With “QVHLVESGGGLVQAGGSLRLSCAASGRTFREYFMGWYRQAPGQERELVAVISWSTGSTYADSVKGRFTISRDNAKNTVYLQMNSLKPEDTAVYYCARRVQSLRNVVIYNYWGQGTQVTVSS” the “polyreactivity (PSR sort gate)” value was “low polyreactivity”. In the case of “QVHLVESGGGLVQAGGSLRLSCAASGRTFRKYAMGWYRQAPGKERELVAAISSSGGRTYYADSVKGRFTISRDNAKNTVYLQMNSLKPEDTAVYYCAAKQGNRNSYKYDYWGQGTQVTVSS”, the “polyreactivity (PSR sort gate)” value is reported as “high polyreactivity”. With “QVHLVESGGGLVQAGGSLRLSCAASGRTFRYYAMGWYRPAPGKERELVAAISSSGDRTYYADSVKGRFTISRDNAKNTVYLQMNSLKPEDTSVYYCAADRGARGDYYWGQGTQVTVSS” the “polyreactivity (PSR sort gate)” value was “high polyreactivity”. For “QVHLVESGGGLVQAGGSLRLSCAASGRTFRYYAMGWYRQAPGKERELVASISSTGGNTYYADSVKGRFTISRDNAKNTVYLQMNSLKPEDTAVYYCAAGAWTRGQYYYWGQGTQVTVSS”, the “polyreactivity (PSR sort gate)” value was “high polyreactivity”. In the case of “QVHLVESGGGLVQAGGSLRLSCAASGRTFWSYAMGWYRQAPGKERELVAAISWRSGTTYYADSVKGRFTISRDNAKNTVYLQMNSLKPEDTAVYYCNAHSNYRGDYWGQGTQVTVSS”, the “polyreactivity (PSR sort gate)” value is reported as “high polyreactivity”. In the case of “QVHLVESGGGLVQAGGSLRLSCAASGRTFWVYAMGWYRQAPGKERQLVAAINRRGGGTYYADSVKGRFTISRDNAKNTVYLQMNTLKPEDTAVYYCAAVSTRVRVNYDSWGQGTQVTVSS”, the “polyreactivity (PSR sort gate)” value is reported as “high polyreactivity”. With “QVHLVESGGGLVQAGGSLRLSCAASGRTFYGNAMGWYRQATGKERELVAAINRDGGTYYADSVKGRFTISRDNAKNTVYLQMNSLKTEDTAVYYCNAVKRGIRYGYWGQGTQVTVSS” the “polyreactivity (PSR sort gate)” value was “high polyreactivity”. For “QVHLVESGGGLVQAGGSLRLSCAASGRTFYSYAMGWYRQAHGKERELVAAINTSGGRKHYADSVKGRFTISRDNAKNTVYLQMNSLKPEDTAVYYCAARYLGGRLSGDYSRYYWGQGTQVTVSS”, the “polyreactivity (PSR sort gate)” value was “high polyreactivity”. With “QVHLVESGGGLVQAGGSLRLSCAASGRTFYVYAMGWYIQAPGKERELVATITSRGGRTYYADSVKGRFTISRDNAKNTVYLQMNSLKPEDTAVYYCNAAWWKVSYVRQKYYYWGQGTQVTVSS” the “polyreactivity (PSR sort gate)” value was “high polyreactivity”. With “QVHLVESGGGLVQAGGSLRLSCAASGRTIVGYDMGWYRQAPGKEMELVAAISSRGGSTYYADSVKGRFTISRDNAKNTVYLQRNSLKPEDTAVYYCAALWYVGYGPVDYWGQGTQVTVSS” the “polyreactivity (PSR sort gate)” value was “high polyreactivity”. For “QVHLVESGGGLVQAGGSLRLSCAASGRTLGGYAMGWYRQAPGKERELVAVITWNGGSTYADSVKGRFTISRDNAKNTVYLQRNSLKPEDTAVYYCAVYIPRGGRSGYWGQGTQVTVSS”, the “polyreactivity (PSR sort gate)” value was “high polyreactivity”. In the case of “QVHLVESGGGLVQAGGSLRLSCAASGRTLYCYAMGWYRQAPGKERELVASIRSGGSTNYADSVKGRFTISRDNAKNTVYLQMNSLKPEVTAVYYCNTGSRLDRVDSWGQGTQVTVSS”, the “polyreactivity (PSR sort gate)” value is reported as “low polyreactivity”. With “QVHLVESGGGLVQAGGSLRLSCAASGRTYGVNAMGRYRQAPGKEREFVAAISKRGGSTYYADSVKGRFTISRDNAKNTVYLQMNSLKPEDTAGYYCAADYTTHYWGQGTQVTVSS” the “polyreactivity (PSR sort gate)” value was “high polyreactivity”. In the case of “QVHLVESGGGLVQAGGSLRLSCAASGSIFAINAMGWYRQAPGKERELVARISWSGGRTYYADSVKGRFTISRDNAKNTVYLQMNSLKPEDTAVYYCAKRYYKSLNRDEFDSWGQGTQVTVSS”, the “polyreactivity (PSR sort gate)” value is reported as “high polyreactivity”. For “QVHLVESGGGLVQAGGSLRLSCAASGSIFAWYGMGWYRQAPGKERELVAAISTAGSTNYADSVKGRFTISRDNAKNTVYLQMNSLKPEDTAVYYCAADWGGLWFWYEYWGQCTQVTVSS”, the “polyreactivity (PSR sort gate)” value was “low polyreactivity”. With “QVHLVESGGGLVQAGGSLRLSCAASGSIFDEYAMGWYRQAPGKERELVAAITSGGSTNYADSVKGRFTISRDNAKNTVYLQMNSLKPEDTAVYYCNVARQAKGMGYWGQGTEVTVSS” the “polyreactivity (PSR sort gate)” value was “low polyreactivity”. In the case of “QVHLVESGGGLVQAGGSLRLSCAASGSIFEINAMGWYRQAPGKEWELVAAITGSGGSTHYADSVKGRFTISRDNAKNTVYLPMNSLNPEDTAVYYCAAVPRYQYGYWGQGTQVTVSS”, the “polyreactivity (PSR sort gate)” value is reported as “low polyreactivity”. In the case of “QVHLVESGGGLVQAGGSLRLSCAASGSIFNENAMGWYRQAPGKERELVATISRRGGSTYYADSVKGRFTISRDNAKNTVYLQMNSLKPEDTAVYYCARDIFWVVYWGQGTQVTVSS”, the “polyreactivity (PSR sort gate)” value is reported as “high polyreactivity”. With “QVHLVESGGGLVQAGGSLRLSCAASGSIFRKYAMGWYRQAPGKERELLAAISVSGGSTYYADSVKGRFTISRDNAKNTVYLQMNSLNPEDTAVYYCAADSGPFNRYAPRGYWGQGTQVTVSS” the “polyreactivity (PSR sort gate)” value was “low polyreactivity”. In the case of “QVHLVESGGGLVQAGGSLRLSCAASGSIFSYYAMGWYRQAPGKERELVASITYSGGSTYYADSVKGRFTISRDNAKNTVYLQMNSLKPEDTAVYYCNTDWRTSVGYDYWGQGTQVTVSS”, the “polyreactivity (PSR sort gate)” value is reported as “low polyreactivity”. In the case of “QVHLVESGGGLVQAGGSLRLSCAASGSIFTSYAMGWYRQAPGKERELVAAITSGGSTNYADSVKGRFTISRDNAKNTVFLKMNSLKPEDTAVDYCAKDRPGQLRWWFLYGYWGQGTQVTVSS”, the “polyreactivity (PSR sort gate)” value is reported as “low polyreactivity”. In the case of “QVHLVESGGGLVQAGGSLRLSCAASGSIFYDYAMVWYIQAPGKERELVAAINSGDSTYYADSVKGRFTISRDNAKNTVYLQMNSLKPEDTAVYFCAATYFSPYIEYDYWGQGTQVTVSS”, the “polyreactivity (PSR sort gate)” value is reported as “low polyreactivity”. With “QVHLVESGGGLVQAGGSLRLSCAASGSIYPYTMGWYRQAPGKERELVAGITRSGGRTYYADSVKGRFTISRDNAKNTVYLQMNSLKPEDTAVYYCAAGTTAWYWSEYYYWGQGTQVTVSS” the “polyreactivity (PSR sort gate)” value was “high polyreactivity”. With “QVHLVESGGGLVQAGGSLRLSCAASGSNFDINAMGWYRQAPGKERELVAVITDSGSTYYADSVKGRFTISRDNAKNTVYLQMNRLKPEDTAVYYSAADQVVAGLLTPEYDYWGQGTQVTVSS” the “polyreactivity (PSR sort gate)” value was “low polyreactivity”. In the case of “QVHLVESGGGLVQAGGSLRLSCAASGSNFYWNAMGWYRQAPGKESELFAAISSGGRTYYADSLKGRFTISRDNAKNTVYLQLNSLKREDTAFYYCNAAGWIFPSFSPMDYWGQGTQVTVSS”, the “polyreactivity (PSR sort gate)” value is reported as “low polyreactivity”. In the case of “QVHLVESGGGLVQAGGSLRLSCAASGSTFDDNTMGWYRQAPGKERELVAAISSDSSTNYADSVKGRFTISRDNAKNTVYLQMNSLKPEDTAVYSCATRSRTTKIVRWPGMYYWGQGTQVTVSS”, the “polyreactivity (PSR sort gate)” value is reported as “high polyreactivity”. For “QVHLVESGGGLVQAGGSLRLSCAASGSTFGLNAMGWYRQAPGKERELVAAITRSDITNYADSVKGRFTISRDNAKNTVYLQMNSLKPEDTAVYYCNKTPDRHRRYFGYGYWGQGTQVTVSS”, the “polyreactivity (PSR sort gate)” value was “low polyreactivity”. For “QVHLVESGGGLVQAGGSLRLSCAASGSTFGYYAMGWYRQAPGKERELVAAIRYSGGTTYYADSVKGRFTISRDNAKNTVYLQMNSLKPEDTAVYYCAAVYTSGYYYWGQGTQVTVSS”, the “polyreactivity (PSR sort gate)” value was “high polyreactivity”. With “QVHLVESGGGLVQAGGSLRLSCAASGSTFHKYALGWYRQAPGKEREYVAAISWSGGSTYYADSVKGRFTISRDNAKYTVYLQMNSLKPEDTAVYFCAARGNRYAYPRKYDYWGQGTQVTVSS” the “polyreactivity (PSR sort gate)” value was “high polyreactivity”. With “QVHLVESGGGLVQAGGSLRLSCAASGSTFIYYGMGWYRHAPGKERELVATISSGGSTNYADSVKGRFTISRDNAKNTVYLQMNSLKPEDTAVYYCAVAPYYYGLLWNTFYEYYYWGQGTQVTVSS” the “polyreactivity (PSR sort gate)” value was “high polyreactivity”. With “QVHLVESGGGLVQAGGSLRLSCAASGSTFPYYAMGWYRQAPGKEREWVAAITSSASTYFADSVKGRFTISRDNAKNTVYLQMNSLKPEDTAVYYCAVRSPYRLSSWRVGYWGQGTQVTVSS” the “polyreactivity (PSR sort gate)” value was “high polyreactivity”. With “QVHLVESGGGLVQAGGSLRLSCAASGSTFRGYGMGWYRQAPGKERELVAAISWRAASTYYADSVKGRFTISRDNAKNTVYLQMNSLKPEDTAVYYCAARYSFSSSTRYYYWGQGTQVTVSS” the “polyreactivity (PSR sort gate)” value was “high polyreactivity”. In the case of “QVHLVESGGGLVQAGGSLRLSCAASGSTFRLYALGWYRQAPGKERELVAVISRSGGRTYADSVKGRFTISRDNAKNTVYLQMNSLKPVDTAVYYCAKARHKSPTYTHDSWGQGTQVTVSS”, the “polyreactivity (PSR sort gate)” value is reported as “high polyreactivity”. With “QVHLVESGGGLVQAGGSLRLSCAASGSTFRRNAMGWYRQAPGKERELVASITSGGSTYYADSVKGRFTITRDNAKNTVYLQMNSLKPEDTGVYYCAVVWRGGYRWPYEYWGQGTQVTVSS” the “polyreactivity (PSR sort gate)” value was “low polyreactivity”. For “QVHLVESGGGLVQAGGSLRLSCAASGSTFSWYDMGWYRQAPGKERELVAAISTTGSTYYADSVKGRFTISRDNAKNTVYLQMNSLKPEDTAVYYCAADYISIAWYRLFYDYDYWGQGTQVTVSS”, the “polyreactivity (PSR sort gate)” value was “high polyreactivity”. With “QVHLVESGGGLVQAGGSLRLSCAASGSTFTLNAMGWYRQAPGKERELVAAITWDGGSTYYADSVKGRFTISRDNAKNTVYLQMNSLKPEDTAVYFCAADREFWWEVVYTYEYYYWGQGTQVTVSS” the “polyreactivity (PSR sort gate)” value was “low polyreactivity”. For “QVHLVESGGGLVQAGGSLRLSCAASGSTFYANLMGWYRQAPGKESELVAAIDGSGGRTYYADSVKGRFTISRDNAKNTVYLQMNSLKPEDTAVYYCAKKRIVPVIQFGRDYNYWGQGTQVTVSS”, the “polyreactivity (PSR sort gate)” value was “high polyreactivity”.
